The values that follow come from FireProtDB (doi:10.1021/bi050342n).

The labels stand for the following.
B1: Azurin, P00282 (parent)
chain: MLRKLAAVSLLSLLSAPLLAAECSVDIQGNDQMQFNTNAITVDKSCKQFTVNLSHPGNLPKNVMGHNWVLSTAADMQGVVTDGMASGLDKDYLKPDDSRVIAHTKLIGSGEKDSVTFDVSKLKEGEQYMFFCTFPGHSALMKGTLTLK

In the series the parent is B1. The following applies: Pseudomonas aeruginosa (strain ATCC 15692 / DSM 22644 / CIP 104116 / JCM 14847 / LMG 12228 / 1C / PRS 101 / PAO1); pH 7; 25 °C; GdnHCl; Fluorescence, CD; Tris-HCl 100 mM; reversible: Yes; structure 5AZU; whole UniProt chain shown.

For V25A, the “ddG of mutation (higher = less stable)” value turned out to be 4.02 kJ/mol, the denaturant m value turned out to be 4.06 kcal/mol/M and the unfolding free energy was determined as 50 kJ/mol.
For I40A, in that order: 10 kJ/mol, 4.54 kcal/mol/M and 44 kJ/mol.
For V42A, in that order: 6.99 kJ/mol, 4.54 kcal/mol/M and 47 kJ/mol.
For V51A, in that order: 6.99 kJ/mol, 4.54 kcal/mol/M and 47 kJ/mol.
For A102G, the “ddG of mutation (higher = less stable)” value amounted to 6.99 kJ/mol, the denaturant m value is 4.3 kcal/mol/M and the unfolding free energy came to 47 kJ/mol.
For I101A, in that order: 5.98 kJ/mol, 4.78 kcal/mol/M and 48 kJ/mol.
The like results for I27A were, in that order, 14 kJ/mol, 4.3 kcal/mol/M and 40 kJ/mol.
The like results for L145A were, in that order, 6.99 kJ/mol, 4.54 kcal/mol/M and 47 kJ/mol.
Take W68A: the “ddG of mutation (higher = less stable)” value was 14 kJ/mol, the denaturant m value came out at 4.78 kcal/mol/M and the unfolding free energy stood at 40 kJ/mol.
On to V80G, for which the “ddG of mutation (higher = less stable)” value worked out at 13 kJ/mol, the denaturant m value was 4.18 kcal/mol/M and the unfolding free energy turned out to be 41 kJ/mol.
For L70A, in that order: 7.49 kJ/mol, 4.42 kcal/mol/M and 46.5 kJ/mol.
Regarding L53A, the “ddG of mutation (higher = less stable)” value came out at 6.99 kJ/mol, the denaturant m value was 4.78 kcal/mol/M and the unfolding free energy stood at 47 kJ/mol.
With Y128A, the “ddG of mutation (higher = less stable)” value was found to be 15 kJ/mol, the denaturant m value came to 4.42 kcal/mol/M and the unfolding free energy is 39 kJ/mol.
For V115A, in that order: 4.02 kJ/mol, 4.3 kcal/mol/M and 50 kJ/mol.
For M141A, the “ddG of mutation (higher = less stable)” value amounted to 12 kJ/mol, the denaturant m value stood at 4.18 kcal/mol/M and the unfolding free energy came out at 42 kJ/mol.
